Reference: the Immune Epitope Database (IEDB)

Key:
HLA-A*01:01 [1] = experiment: IEDB peptide-MHC binding, purified MHC/direct/fluorescence; filed as Kd, often an IC50 or EC50 that approximates it; ≥ and ≤ were set here for values at or beyond the usual limits of such assays
HLA-A*02:01 = experiment: as above
HLA-A*11:01 [2] = experiment: as above
HLA-A*26:01 = experiment: as above
HLA-A*26:02 = experiment: as above; conditions: source organism: Variola virus
HLA-A*31:01 = experiment: as above
HLA-A*68:02 = experiment: as above
HLA-A*69:01 = experiment: as above
HLA-B*07:02 [3] = experiment: as above
HLA-B*08:03 = experiment: as above
HLA-B*15:01 = experiment: as above
HLA-B*15:02 = experiment: as above
HLA-B*15:17 = experiment: as above
HLA-B*27:05 [4] = experiment: as above
HLA-B*46:01 = experiment: as above
HLA-B*48:01 = experiment: as above
HLA-B*57:01 = experiment: as above
HLA-B*58:01 = experiment: as above
HLA-B*35:01 [5] = experiment: IEDB peptide-MHC binding, purified MHC/competitive/fluorescence; filed as Kd, often an IC50 or EC50 that approximates it; ≥ and ≤ were set here for values at or beyond the usual limits of such assays; conditions: source organism: Horsepox virus
HLA-B*27:05 [6] = experiment: IEDB peptide-MHC binding, purified MHC/competitive/fluorescence; ≥ and ≤ were set here for values at or beyond the usual limits of such assays; conditions: source organism: hepatitis C virus genotype 1a
HLA-A*01:01 [7] = experiment: as above; conditions: source organism: Vaccinia virus Copenhagen
HLA-A*03:01 = experiment: IEDB peptide-MHC binding, purified MHC/direct/fluorescence; filed as Kd, often an IC50 or EC50 that approximates it; ≥ and ≤ were set here for values at or beyond the usual limits of such assays
HLA-A*26:03 = experiment: as above
HLA-B*18:01 = experiment: as above; conditions: source organism: Giardia lamblia ATCC 50803
HLA-B*40:01 = experiment: as above; conditions: source organism: Giardia lamblia ATCC 50803
HLA-B*07:02 [8] = experiment: IEDB peptide-MHC binding, purified MHC/competitive/fluorescence; filed as Kd, often an IC50 or EC50 that approximates it; ≥ and ≤ were set here for values at or beyond the usual limits of such assays; conditions: source organism: Giardia lamblia ATCC 50803
HLA-B*08:01 = experiment: as above; conditions: source organism: Giardia lamblia ATCC 50803
HLA-B*08:02 = experiment: IEDB peptide-MHC binding, purified MHC/direct/fluorescence; filed as Kd, often an IC50 or EC50 that approximates it; ≥ and ≤ were set here for values at or beyond the usual limits of such assays; conditions: source organism: Bacillus anthracis str. A0389
HLA-B*35:01 [9] = experiment: as above; conditions: source organism: Bacillus anthracis str. A0389
HLA-B*39:01 = experiment: as above; conditions: source organism: Bacillus anthracis str. A0389
HLA-A*11:01 [10] = experiment: IEDB peptide-MHC binding, purified MHC/competitive/fluorescence; filed as Kd, often an IC50 or EC50 that approximates it; ≥ and ≤ were set here for values at or beyond the usual limits of such assays; conditions: source organism: Bacillus anthracis str. A0389
HLA-A*30:01 = experiment: as above; conditions: source organism: Bacillus anthracis str. A0389
[11] = source organism: Camelpox virus M-96
[12] = source organism: Giardia lamblia ATCC 50803
[13] = source organism: Mycobacterium tuberculosis str. Haarlem
[14] = source organism: Mycobacterium tuberculosis
[15] = source organism: Bacillus anthracis
[16] = source organism: Bacillus anthracis str. A0389

With LLRDKDGVY the Kd (HLA-A*01:01 [1]; [11]) was ≥ 20 µM, the Kd (HLA-A*02:01; [11]) was ≥ 20 µM and the Kd (HLA-A*11:01 [2]; [11]) was ≥ 20 µM. The Kd (HLA-A*26:01; source organism: Variola virus) was ≥ 20 µM, the Kd (HLA-A*26:02) was ≥ 20 µM and the Kd (HLA-A*31:01; [11]) was ≥ 20 µM. The Kd (HLA-A*68:02; [11]) was ≥ 20 µM, the Kd (HLA-A*69:01; [11]) was ≥ 20 µM and the Kd (HLA-B*07:02 [3]; [11]) was ≥ 20 µM. The Kd (HLA-B*08:03; source organism: Variola virus) was ≥ 20 µM, the Kd (HLA-B*15:01; [11]) was 0.0693 µM and the Kd (HLA-B*15:02; source organism: Variola virus) was 0.043 µM. For the same sequence, the Kd (HLA-B*15:17; [11]) was 0.393 µM, the Kd (HLA-B*27:05 [4]; [11]) was ≥ 20 µM and the Kd (HLA-B*46:01; [11]) was ≥ 20 µM. The Kd (HLA-B*48:01; [11]) was ≥ 20 µM, the Kd (HLA-B*57:01; [11]) was ≥ 20 µM and the Kd (HLA-B*58:01; [11]) was ≥ 20 µM. The Kd (HLA-B*35:01 [5]) was 0.0677 µM.
Work on GRATICGKY yielded an IC50 (HLA-B*27:05 [6]) of 0.122 µM.
Sequence LTDSLSSQM has an IC50 (HLA-A*01:01 [7]) of 2.54 µM.
For EIRHRSGIQ, the Kd (HLA-A*01:01 [1]; [12]) was ≥ 20 µM, the Kd (HLA-A*02:01; [12]) was ≥ 20 µM and the Kd (HLA-A*03:01; [12]) was 2 µM. The Kd (HLA-A*11:01 [2]; [12]) was 6.39 µM, the Kd (HLA-A*26:03; [12]) was ≥ 20 µM and the Kd (HLA-A*31:01; [12]) was ≥ 20 µM. The Kd (HLA-A*68:02; [12]) was ≥ 20 µM, the Kd (HLA-A*69:01; [12]) was ≥ 20 µM and the Kd (HLA-B*08:03; [12]) was ≥ 20 µM. The Kd (HLA-B*15:01; [12]) was ≥ 20 µM, the Kd (HLA-B*15:17; [12]) was ≥ 20 µM and the Kd (HLA-B*18:01) was ≥ 20 µM. The Kd (HLA-B*27:05 [4]; [12]) was ≥ 20 µM, the Kd (HLA-B*40:01) was ≥ 20 µM and the Kd (HLA-B*46:01; [12]) was ≥ 20 µM. For the same sequence, the Kd (HLA-B*48:01; [12]) was ≥ 20 µM, the Kd (HLA-B*57:01; [12]) was ≥ 20 µM and the Kd (HLA-B*58:01; [12]) was ≥ 20 µM. The Kd (HLA-B*07:02 [8]) was 0.41 µM and the Kd (HLA-B*08:01) was 9 µM.
SMRFESSPH showed a Kd (HLA-B*07:02 [3]; [13]) of 5.35 µM, a Kd (HLA-B*15:01; [14]) of 0.0093 µM and a Kd (HLA-B*15:02; [13]) of 0.049 µM. The Kd (HLA-B*46:01; [14]) was 15.5 µM.
KLYVNGKAY was tested, and the Kd (HLA-A*01:01 [1]; [15]) was ≥ 20 µM, the Kd (HLA-A*02:01; [15]) was ≥ 20 µM and the Kd (HLA-A*03:01; [15]) was 0.032 µM. For the same sequence, the Kd (HLA-A*26:01; [16]) was ≥ 20 µM, the Kd (HLA-A*26:03; [16]) was ≥ 20 µM and the Kd (HLA-A*31:01; [15]) was ≥ 20 µM. The Kd (HLA-A*68:02; [15]) was ≥ 20 µM, the Kd (HLA-A*69:01; [15]) was ≥ 20 µM and the Kd (HLA-B*07:02 [3]; [15]) was ≥ 20 µM. For the same sequence, the Kd (HLA-B*08:02) was ≥ 20 µM, the Kd (HLA-B*15:01; [15]) was 0.298 µM and the Kd (HLA-B*15:02; [16]) was 0.117 µM. For the same sequence, the Kd (HLA-B*15:17; [15]) was 0.0024 µM, the Kd (HLA-B*27:05 [4]; [15]) was ≥ 20 µM and the Kd (HLA-B*35:01 [9]) was 1.63 µM. The Kd (HLA-B*39:01) was ≥ 20 µM, the Kd (HLA-B*46:01; [15]) was 6 µM and the Kd (HLA-B*48:01; [15]) was ≥ 20 µM. For the same sequence, the Kd (HLA-B*57:01; [15]) was 0.507 µM, the Kd (HLA-B*58:01; [15]) was ≥ 20 µM and the Kd (HLA-A*11:01 [10]) was ≥ 20 µM. For the same sequence, the Kd (HLA-A*30:01) was 0.4 µM.
